As usually defined, the Kd is the constant that tells how readily two partners part at equilibrium. A low value points to a tighter complex. Usually koff stands for the rate constant with which the complex falls apart. A low value points to slow dissociation. A word on the kon: it is a measure of how fast the partners come together.

For one experiment, the target named is T1, XENP27145 (human).
T1 construct: also called NKG2D-targeted IL-15(N4D/N65D)/Rα-Fc fusion with targeting arm based on MS
The experiment in a line: Octet (BLI): HIS-tagged human NKG2D captured on HIS1K biosensors, dipped into multiple concentrations of the fusion; global fit, 1:1 Langmuir model. For orientation: In BLI a coated tip is dipped into the sample, and binding shifts an interference pattern.

Another experiment addresses T2, XENP27197 (human, UniProt P0DOX7 1-214).
T2 construct: scIL-15/Rα x Fab format; also called NKG2D-targeted IL-15/Rα-Fc fusion based on 1D7B4 and IL-15(N4D/N65D) variant
The experiment is described as above.

Experiment [1] deals with T3, cynomolgus CD8 (captured on the Octet biosensor) (cynomolgus).
T3 construct: Construct not described; also called cyno CD8; cyno CD8a
The experiment in a line: method not stated in the sentence (Octet in the same example).

In experiment [2] the target is T3, cynomolgus CD8 (captured on the Octet …). The experiment is described as follows: Octet (BLI); cynomolgus CD8 captured, dipped into multiple concentrations of the one-arm mAb.
Experiment [3] has as its target T4, human CD8 (captured on the Octet biosensor) (human, UniProt P01732 22-182, limits assumed).
T4 construct: Construct not described; also called recombinant human CD8a
The experiment in a line: Octet (BLI); human CD8 captured, dipped into multiple concentrations of the one-arm mAb.

The target of experiment [4] is T5, NKG2D (affinity ladder and epitope binning; construct not stated) (UniProt P26718 73-216, limits assumed).
T5 sequence (looked up): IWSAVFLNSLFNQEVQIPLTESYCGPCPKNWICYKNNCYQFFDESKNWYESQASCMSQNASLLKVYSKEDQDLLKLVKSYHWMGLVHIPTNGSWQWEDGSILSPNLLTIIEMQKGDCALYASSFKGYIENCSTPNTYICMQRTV
The experiment in a line: affinity ladder; method and format not stated.

T4 sequence (P01732 22-182 limits assumed): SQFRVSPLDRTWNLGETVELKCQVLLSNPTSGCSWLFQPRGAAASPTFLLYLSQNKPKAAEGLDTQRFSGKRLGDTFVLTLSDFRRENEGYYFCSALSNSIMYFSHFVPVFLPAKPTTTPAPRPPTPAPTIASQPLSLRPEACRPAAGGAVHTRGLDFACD

B1: HIS-tagged human NKG2D (receptor, UniProt P26718 73-216, looked up)
chain: IWSAVFLNSLFNQEVQIPLTESYCGPCPKNWICYKNNCYQFFDESKNWYESQASCMSQNASLLKVYSKEDQDLLKLVKSYHWMGLVHIPTNGSWQWEDGSILSPNLLTIIEMQKGDCALYASSFKGYIENCSTPNTYICMQRTV
notes: Captured on HIS1K biosensors; not shown: HIS tag
For the molecule B1, in the experiment with XENP27145, the Kd was 2.45 nM, the koff was determined as 0.00123 s⁻¹ and the kon is 502000 M⁻¹ s⁻¹. In the experiment with XENP27197, this molecule came in with a Kd of 8.66 nM, a koff of 0.00325 s⁻¹ and an association rate constant (kon) of 375000 M⁻¹ s⁻¹.

B2: humanized OKT8 variant (H2L1) (antibody)
heavy: QVQLVQSGAEVKKPGASVKVSCKASGFNIKDTYIHWVRQAPGKGLEWMGRIDPANDNTLYASKFQGRVTITADTSINTAYMELSRLRSDDTAVYYCGRGYGYYVFDHWGQGTTVTVSSASTKGPSVFPLAPSSKSTSGGTAALGCLVKDYFPEPVTVSWNSGALTSGVHTFPAVLQSSGLYSLSSVVTVPSSSLGTQTYICNVNHKPSNTKVDKKVEPKSCDKTHTCPPCPAPPVAGPSVFLFPPKPKDTLMISRTPEVTCVVVDVKHEDPEVKFNWYVDGVEVHNAKTKPREEQYNSTYRVVSVLTVLHQDWLNGKEYKCKVSNKALPAPIEKTISKAKGQPREPQVYTLPPSREQMTKNQVKLTCLVKGFYPSDIAVEWESNGQPENNYKTTPPVLDSDGSFFLYSKLTVDKSRWQQGNVFSCSVMHEALHNHYTQKSLSLSPGK
light: DIKMTQSPSSLSASVGDRVTITCRTSRSISQYLAWYQEKPGKTNKLLIYSGSTLQSGIPSRFSGSGSGTDFTLTISSLQPEDFATYYCQQHNENPLTFGAGTKLEIKRTVAAPSVFIFPPSDEQLKSGTASVVCLLNNFYPREAKVQWKVDNALQSGNSQESVTEQDSKDSTYSLSSTLTLSKADYEKHKVYACEVTHQGLSSPVTKSFNRGEC
Fc: EPKSSDKTHTCPPCPAPPVAGPSVFLFPPKPKDTLMISRTPEVTCVVVDVKHEDPEVKFNWYVDGVEVHNAKTKPREEEYNSTYRVVSVLTVLHQDWLNGKEYKCKVSNKALPAPIEKTISKAKGQPREPQVYTLPPSREEMTKNQVSLTCDVSGFYPSDIAVEWESDGQPENNYKTTPPVLDSDGSFFLYSKLTVDKSRWEQGDVFSCSVMHEALHNHYTQKSLSLSPGK
notes: also called OKT8_H2L1
On to B2, for which the equilibrium dissociation constant (Kd) in experiment [1] is 200 nM. In experiment [2], this molecule returned a Kd of 202 nM, an off-rate (koff) of 0.0699 s⁻¹ and a kon of 347000 M⁻¹ s⁻¹. In experiment [3], this molecule yielded a dissociation constant Kd of 12 nM, a koff of 0.006 s⁻¹ and a kon of 500000 M⁻¹ s⁻¹.

B3: KYK-1.0 (anti-NKG2D antigen binding domain) (antibody, V domains shown)
VH: EVQLVESGGGVVQPGGSLRLSCAASGFTFSSYGMHWVRQAPGKGLEWVAFIRYDGSNKYYADSVKGRFTISRDNSKNTKYLQMNSLRAEDTAVYYCAKDRFGYYLDYWGQGTLVTVSS
VL: QPVLTQPSSVSVAPGETARIPCGGDDIETKSVHWYQQKPGQAPVLVIYDDDDRPSGIPERFFGSNSGNTATLSISRVEAGDEADYYCQVWDDNNDEWVFGGGTQLTVL
notes: also called KYK-1.0[NKG2D]_H1L1
B3: the dissociation constant Kd in experiment [4] turned out to be 170 nM.

The values above are taken from US12448423 (Xencor, dated 2025).
